The values that follow come from patent US20260092115A1 (Chugai, published 2026).

Numbering of substitutions follows the chain as printed.

Experiment [1] has as its target T1, human CTLA4 (soluble analyte of the Biacore assays of Examples 3-3, 4 and 5) (human, UniProt P16410 36-161).
T1 construct: also called hCTLA4
T1 sequence: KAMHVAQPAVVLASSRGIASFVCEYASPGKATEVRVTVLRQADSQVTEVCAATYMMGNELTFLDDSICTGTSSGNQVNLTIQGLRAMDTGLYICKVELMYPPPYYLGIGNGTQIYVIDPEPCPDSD
Nature of the experiment: SPR 37C, ATP 10 µM. Here is the method:
Biacore T200 was used to measure the binding of the generated antibodies to human CTLA4. 20 mM ACES (pH 7.4), 150 mM NaCl, 2 mM MgCl₂, 0.05% Tween 20 with ATP added to the desired concentration was used as the running buffer, and the assay was performed at 37° C. First, Protein G (CALBIOCHEM) was immobilized onto a Series S Sensor Chip CM3 (GE Healthcare), and the antibodies were captured by interacting an antibody solution prepared in an ATP-free running buffer with the chip. Next, by interacting with a human CTLA4 solution prepared in a running buffer containing ATP to the desired concentration, or a human CTLA4 solution prepared in a running buffer containing no ATP, the binding ability of the antibody to human CTLA4 in the presence or absence of ATP was evaluated. Chips were regenerated with 25 mM NaOH and 10 mM Glycine-HCl (pH 1.5), and assay was performed by repeatedly capturing antibodies. The dissociation constant of each antibody for CTLA4 was calculated using Biacore T200 Evaluation Software 2.0. Specifically, the binding rate constant ka (L/mol/s) and the dissociation rate constant kd (1/s) were calculated by global fitting of the sensorgrams obtained by the measurement, using a 1:1 Langmuir binding model. The dissociation constant KD (mol/L) was calculated from those values. Alternatively, the dissociation constant KD (mol/L) was calculated by the steady state model. […]

Experiment [2] concerns the target T1, human CTLA4 (soluble analyte of the …). Nature of the experiment: SPR 37C, Ab on Protein G, 1000 nM CTLA4, no ATP. The method, then: (§1) Next, by interacting with a human CTLA4 solution prepared in a running buffer containing ATP to the desired concentration, or a human CTLA4 solution prepared in a running buffer containing no ATP, the binding ability of the antibody to human CTLA4 in the presence or absence of ATP was evaluated. Chips were regenerated with 25 mM NaOH and 10 mM Glycine-HCl (pH 1.5), and assay was performed by repeatedly capturing antibodies. The dissociation constant of each antibody for CTLA4 was calculated using Biacore T200 Evaluation Software 2.0. Specifically, the binding rate constant ka (L/mol/s) and the dissociation rate constant kd (1/s) were calculated by global fitting of the sensorgrams obtained by the measurement, using a 1:1 Langmuir binding model. The dissociation constant KD (mol/L) was calculated from those values. Alternatively, the dissociation constant KD (mol/L) was calculated by the steady state model. In addition, the binding amount of CTLA4 per unit amount of antibody was calculated by correcting the amount of CTLA4 bound as calculated from the sensorgram obtained by the assay with the amount of antibody captured onto the chip surface.
(§2) Biacore T200 was used to evaluate the binding of the generated variants to ATP and to human CTLA4. The assay of binding to ATP was performed at 37° C. using 20 mM ACES (pH 7.4), 150 mM NaCl, 2 mM MgCl₂, 0.05% Tween20 as the running buffer. First, Sure Protein A (GE Healthcare) was immobilized onto a Series S Sensor Chip CM3 (GE Healthcare), and the antibodies were captured onto the chip by interacting an antibody solution prepared in the running buffer. Next, the binding ability to the antibody was evaluated by interacting with an ATP solution prepared in the running buffer. Chips were regenerated with 25 mM NaOH and 10 mM Glycine-HCl (pH 1.5) and assay was performed by repeatedly capturing antibodies. For the binding amount of each antibody to ATP, the binding amount of ATP per unit amount of antibody was calculated by correcting the amount of binding when ATP was injected at a concentration of 100 nM with the amount of antibody captured onto the chip surface. Binding to human CTLA4 was measured using Biacore T200 by the method described in Example 3-3.

Experiment [3] shares this target. Nature of the experiment: SPR 37C, Ab on Protein G, 1000 nM CTLA4, ATP 1 uM. Here is the method:
as §1, §2

Experiment [4] shares this target. Nature of the experiment: SPR 37C, Ab on Protein G, 1000 nM CTLA4, ATP 10 uM. Here is the method: as §1, §2
Experiment [5] has the same target. The experiment in a line: SPR 37C, Ab on Protein G, 1000 nM CTLA4, ATP 100 uM. The method, then:
as §1, §2

The next experiment concerns the target T2, mCTLA4-His (mouse, UniProt P09793 36-161).
T2 construct: also called mouse CTLA4; Mouse CTLA4
Nature of the experiment: SPR 37C, ATP 100 µM.

B1: 04H1389-G1m/04L1086-lam1 (antibody, human IgG1, lambda, V domains shown)
VH: EVQLVESGGGLVKPGGSLRLSCAASGFTFSSKTMNWVRQAPGKGLEWVSSISTQSHYIYYAESVKGRFTISRDNAKNSLYLQMNSLRAEDTAVYYCARYGKREDMLWVFDYWGQGTLVTVSS
VL: QSALTQPPSASGSPGQTVTISCDGPSTGVGDYNYVHWYQQHPGKAPKLMIYFTSKKPSGVPDRFSGSKSGNTASLTVSGLQAEDEADYFCQTYAAPLGPMFGGGTKLTVLG
Regarding B1, the “fold enhancement of binding ability against the parent antibody 04H1207-G1m/04L1086-lam1” value in experiment [1] is about 10 fold. Moreover, the “Binding to Human CTLA4 (amount per unit antibody)” value was 0.022 in experiment [2], 0.138 in experiment [3], 0.189 in experiment [4] and 0.193 in experiment [5].

B2: 04H1208-G1m/04L1407-k0MT (antibody, human IgG1, kappa, V domains shown)
VH: B1 VH with Q54R, H56G, E62R
VL: DIVMTQSPLSLPVTPGEPASISCDGPSTDVGDYNWVHWYQQKPGQAPRLLIYYTSSKPEGVPDRFSGSGSGTDFTLKISRVEAEDVGVYYCQTYAAPLGPTFGQGTKLEIKR
Turning to B2, the “fold weaker binding ability to mouse CTLA4 than to human CTLA4” value in the experiment with mCTLA4-His is about 2 fold.

B3: 04H1382-G1m/04L1086-lam1 (antibody, human IgG1, lambda, V domains shown)
VH: B1 VH with E62R
VL: B1 VL
B3: in experiment [1], the “fold enhancement of binding ability against the parent antibody 04H1208-G1m/04L1086-lam1” value was about 10 fold.
